From patent publication US20230167164A1 (IMMUNOWAKE, published 2023)
Residue numbers refer to the chain shown, from its start. Names and notes keep the numbering of the source.

Legend:
[1] = molecular target: T1, human IL-12 receptor complex (human, UniProt P42701 24-662; Q99665 24-862); assay: cell-based or functional assay
CD8 on CD8+ T cells = molecular target: T2, CD8 on CD8+ T cells (human, UniProt P01732 22-235); assay: FACS on CD8+ T cells
T2 construct: whole, on cells

IL-23 receptor complex = IL-23 receptor complex (UniProt P42701 24-662; Q5VWK5 24-629, limits assumed); assay: cell-based or functional assay
[2] = molecular target: human PD-1 overexpressed on HEK-Blue reporter cells (human, UniProt Q15116 25-288); assay: cell-based or functional assay
[3] = molecular target: T1, human IL-12 receptor complex; assay: cell-based or functional assay; remark: listed apart in the source
human IL-2 receptor = molecular target: T3, human IL-2 receptor (human, UniProt P01589 22-272; P14784 27-551; P31785 23-369); assay: cell-based or functional assay
T3 sequence (looked up) 1: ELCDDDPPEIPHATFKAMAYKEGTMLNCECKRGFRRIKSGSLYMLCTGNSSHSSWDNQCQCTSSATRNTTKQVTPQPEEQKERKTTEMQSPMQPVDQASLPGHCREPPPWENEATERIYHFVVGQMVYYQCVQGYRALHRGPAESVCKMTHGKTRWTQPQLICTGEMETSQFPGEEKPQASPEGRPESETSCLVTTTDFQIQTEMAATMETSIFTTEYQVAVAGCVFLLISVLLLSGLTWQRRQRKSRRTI
T3 sequence (looked up) 2: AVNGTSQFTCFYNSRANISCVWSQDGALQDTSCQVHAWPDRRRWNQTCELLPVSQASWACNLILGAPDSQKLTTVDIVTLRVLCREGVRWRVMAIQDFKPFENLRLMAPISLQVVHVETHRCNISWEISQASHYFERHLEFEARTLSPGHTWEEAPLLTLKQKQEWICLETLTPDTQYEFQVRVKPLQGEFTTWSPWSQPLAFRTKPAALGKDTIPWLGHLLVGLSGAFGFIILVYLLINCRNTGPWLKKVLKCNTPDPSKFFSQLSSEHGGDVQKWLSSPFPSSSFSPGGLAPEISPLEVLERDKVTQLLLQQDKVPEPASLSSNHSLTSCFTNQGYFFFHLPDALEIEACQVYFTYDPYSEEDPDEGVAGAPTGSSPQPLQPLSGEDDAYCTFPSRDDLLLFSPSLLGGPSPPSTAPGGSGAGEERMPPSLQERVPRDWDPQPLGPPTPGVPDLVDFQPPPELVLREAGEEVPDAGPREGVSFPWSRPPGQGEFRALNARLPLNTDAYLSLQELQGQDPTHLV
T3 sequence (looked up) 3: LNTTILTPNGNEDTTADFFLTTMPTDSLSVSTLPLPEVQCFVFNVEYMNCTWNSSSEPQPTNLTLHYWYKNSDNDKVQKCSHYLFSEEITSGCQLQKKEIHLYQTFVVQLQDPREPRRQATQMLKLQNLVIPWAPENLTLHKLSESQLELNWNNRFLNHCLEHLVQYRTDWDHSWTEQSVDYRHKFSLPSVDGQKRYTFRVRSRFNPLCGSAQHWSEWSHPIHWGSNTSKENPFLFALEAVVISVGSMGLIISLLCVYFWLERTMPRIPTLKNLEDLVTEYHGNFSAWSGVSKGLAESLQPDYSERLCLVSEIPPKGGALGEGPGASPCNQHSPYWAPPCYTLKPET

human PD-1 overexpressed on HEK-Blue reporter cells, sequence (Q15116 25-288): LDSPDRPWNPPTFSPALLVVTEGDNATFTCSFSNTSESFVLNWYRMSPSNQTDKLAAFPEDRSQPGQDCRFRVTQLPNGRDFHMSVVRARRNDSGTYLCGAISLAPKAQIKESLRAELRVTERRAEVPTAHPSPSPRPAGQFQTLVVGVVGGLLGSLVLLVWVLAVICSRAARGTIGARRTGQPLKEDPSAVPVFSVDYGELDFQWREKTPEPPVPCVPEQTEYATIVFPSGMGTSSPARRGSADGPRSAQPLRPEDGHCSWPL
T1 sequence (Q99665 24-862, chain 2 of 2, other chains not shown): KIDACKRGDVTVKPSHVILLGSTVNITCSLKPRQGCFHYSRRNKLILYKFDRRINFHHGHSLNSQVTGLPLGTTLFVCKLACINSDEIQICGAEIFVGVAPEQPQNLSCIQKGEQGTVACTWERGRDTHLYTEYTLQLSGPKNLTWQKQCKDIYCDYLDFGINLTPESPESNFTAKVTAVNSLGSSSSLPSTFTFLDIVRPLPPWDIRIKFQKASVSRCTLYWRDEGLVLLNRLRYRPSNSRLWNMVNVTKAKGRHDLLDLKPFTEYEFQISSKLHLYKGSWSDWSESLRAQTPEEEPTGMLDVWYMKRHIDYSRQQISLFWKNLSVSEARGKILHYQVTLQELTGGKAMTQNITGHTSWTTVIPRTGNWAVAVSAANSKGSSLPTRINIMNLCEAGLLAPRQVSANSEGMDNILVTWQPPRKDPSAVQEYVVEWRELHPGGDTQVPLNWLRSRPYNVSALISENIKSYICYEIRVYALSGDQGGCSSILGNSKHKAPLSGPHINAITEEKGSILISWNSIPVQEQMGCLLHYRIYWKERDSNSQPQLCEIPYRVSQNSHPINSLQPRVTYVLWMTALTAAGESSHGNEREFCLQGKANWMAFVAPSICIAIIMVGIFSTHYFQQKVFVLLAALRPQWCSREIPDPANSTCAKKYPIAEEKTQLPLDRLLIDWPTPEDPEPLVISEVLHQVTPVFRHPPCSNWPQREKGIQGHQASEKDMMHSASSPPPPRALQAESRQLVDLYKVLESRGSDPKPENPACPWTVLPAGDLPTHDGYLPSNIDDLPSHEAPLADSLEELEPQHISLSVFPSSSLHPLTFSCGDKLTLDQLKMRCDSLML
T2 sequence (P01732 22-235): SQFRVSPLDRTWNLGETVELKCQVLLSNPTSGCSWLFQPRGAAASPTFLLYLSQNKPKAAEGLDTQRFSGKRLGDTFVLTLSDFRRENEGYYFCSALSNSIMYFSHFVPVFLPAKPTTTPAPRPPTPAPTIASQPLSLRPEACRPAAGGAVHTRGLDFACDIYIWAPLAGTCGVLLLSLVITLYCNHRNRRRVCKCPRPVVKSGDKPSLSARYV
IL-23 receptor complex, sequence (Q5VWK5 24-629 limits assumed, chain 2 of 2, other chains not shown): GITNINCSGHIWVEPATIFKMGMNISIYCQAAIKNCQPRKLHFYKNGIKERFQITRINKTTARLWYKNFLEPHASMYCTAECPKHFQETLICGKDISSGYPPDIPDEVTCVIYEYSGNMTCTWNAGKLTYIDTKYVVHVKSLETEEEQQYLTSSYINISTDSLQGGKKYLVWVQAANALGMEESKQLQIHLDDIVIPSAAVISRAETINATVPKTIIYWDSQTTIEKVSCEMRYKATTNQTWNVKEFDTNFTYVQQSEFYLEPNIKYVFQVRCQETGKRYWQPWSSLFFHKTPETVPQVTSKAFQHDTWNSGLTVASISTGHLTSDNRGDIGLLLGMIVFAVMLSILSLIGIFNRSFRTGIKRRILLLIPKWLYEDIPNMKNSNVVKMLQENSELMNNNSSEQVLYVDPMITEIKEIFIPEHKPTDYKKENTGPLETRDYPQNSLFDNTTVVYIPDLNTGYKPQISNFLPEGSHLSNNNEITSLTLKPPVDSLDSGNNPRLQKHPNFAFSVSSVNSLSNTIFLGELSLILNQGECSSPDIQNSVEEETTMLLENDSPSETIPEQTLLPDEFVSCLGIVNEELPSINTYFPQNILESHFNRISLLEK

B1: Fab-IL-12(WT)-Fc-CD4 Ab (other)
heavy 1: QVQLQQSGPEVVKPGASVKMSCKASGYTFTSYVIHWVRQKPGQGLDWIGYINPYNDGTDYDEKFKGKATLTSDTSTSTAYMELSSLRSEDTAVYYCAREKDNYATGAWFAYWGQGTLVTVSSASTKGPSVFPLAPSSKSTSGGTAALGCLVKDYFPEPVTVSWNSGALTSGVHTFPAVLQSSGLYSLSSVVTVPSSSLGTQTYICNVNHKPSNTKVDKKVEPKSCDKPGSGIWELKKDVYVVELDWYPDAPGEMVVLTCDTPEEDGITWTLDQSSEVLGSGKTLTIQVKEFGDAGQYTCHKGGEVLSHSLLLLHKKEDGIWSTDILKDQKEPKNKTFLRCEAKNYSGRFTCWWLTTISTDLTFSVKSSRGSSDPQGVTCGAATLSAERVRGDNKEYEYSVECQEDSACPAAEESLPIEVMVDAVHKLKYENYTSSFFIRDIIKPDPPKNLQLKPLKNSRQVEVSWEYPDTWSTPHSYFSLTFCVQVQGKSKREKKDRVFTDKTSATVICRKNASISVRAQDRYYSSSWSEWASVPCSGGGGSGGGGSGGGGSGGGGSGRNLPVATPDPGMFPCLHHSQNLLRAVSNMLQKARQTLEFYPCTSEEIDHEDITKDKTSTVEACLPLELTKNESCLNSRETSFITNGSCLASRKTSFMMALCLSSIYEDLKMYQVEFKTMNAKLLMDPKRQIFLDQNMLAVIDELMQALNFNSETVPQKSSLEEPDFYKTKIKLCILLHAFRIRAVTIDRVMSYLNASDKTHTCPPCPAPEDEGGPSVFLFPPKPKDTLMISRTPEVTCVVVDVSHEDPEVKFNWYVDGVEVHNAKTKPREEQYNSTYRVVSVLTVLHQDWLNGKEYKCKVSNKALPAPIEKTISKAKGQPREPQVYVYPPSREEMTKNQVSLTCLVKGFYPSDIAVEWESNGQPENNYKTTPPVLDEDGSFALVSKLTVDKSRWQQGNVFSCSVMHEALHNHYTQKSLSLSPGK
heavy 2: QVQLQQSGPEVVKPGASVKMSCKASGYTFTSYVIHWVRQKPGQGLDWIGYINPYNDGTDYDEKFKGKATLTSDTSTSTAYMELSSLRSEDTAVYYCAREKDNYATGAWFAYWGQGTLVTVSSASTKGPSVFPLAPSSKSTSGGTAALGCLVKDYFPEPVTVSWNSGALTSGVHTFPAVLQSSGLYSLSSVVTVPSSSLGTQTYICNVNHKPSNTKVDKKVEPKSCDKTHTCPPCPAPEKKGGPSVFLFPPKPKDTLMISRTPEVTCVVVDVSHEDPEVKFNWYVDGVEVHNAKTKPREEQYNSTYRVVSVLTVLHQDWLNGKEYKCKVSNKALPAPIEKTISKAKGQPREPQVYVLPPSREEMTKNQVSLLCLVKGFYPSDIAVEWESNGQPENRYMTWPPVLDSDGSFFLYSKLTVDKSRWQQGNVFSCSVMHEALHNHYTQKSLSLSPGK
light: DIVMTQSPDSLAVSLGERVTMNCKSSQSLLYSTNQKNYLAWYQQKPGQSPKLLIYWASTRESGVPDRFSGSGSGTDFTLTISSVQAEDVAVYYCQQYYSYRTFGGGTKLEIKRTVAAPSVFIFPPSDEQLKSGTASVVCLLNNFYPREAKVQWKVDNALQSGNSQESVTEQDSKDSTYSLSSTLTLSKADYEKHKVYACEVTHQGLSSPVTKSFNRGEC
- IFN-γ release, % of rIL-12, activated CD8+ T cells [1]: 25%
- binding result (CD8 on CD8+ T cells): no binding

B2: Fab-IL-23(E59A)-Fc-CD4 Ab (other)
heavy 1: QVQLQQSGPEVVKPGASVKMSCKASGYTFTSYVIHWVRQKPGQGLDWIGYINPYNDGTDYDEKFKGKATLTSDTSTSTAYMELSSLRSEDTAVYYCAREKDNYATGAWFAYWGQGTLVTVSSASTKGPSVFPLAPSSKSTSGGTAALGCLVKDYFPEPVTVSWNSGALTSGVHTFPAVLQSSGLYSLSSVVTVPSSSLGTQTYICNVNHKPSNTKVDKKVEPKSCDKPGSGIWELKKDVYVVELDWYPDAPGEMVVLTCDTPEEDGITWTLDQSSEVLGSGKTLTIQVKAFGDAGQYTCHKGGEVLSHSLLLLHKKEDGIWSTDILKDQKEPKNKTFLRCEAKNYSGRFTCWWLTTISTDLTFSVKSSRGSSDPQGVTCGAATLSAERVRGDNKEYEYSVECQEDSACPAAEESLPIEVMVDAVHKLKYENYTSSFFIRDIIKPDPPKNLQLKPLKNSRQVEVSWEYPDTWSTPHSYFSLTFCVQVQGKSKREKKDRVFTDKTSATVICRKNASISVRAQDRYYSSSWSEWASVPCSGGGGSGGGGSGGGGSGGGGSGRAVPGGSSPAWTQCQQLSQKLCTLAWSAHPLVGHMDLREEGDEETTNDVPHIQCGDGCDPQGLRDNSQFCLQRIHQGLIFYEKLLGSDIFTGEPSLLPDSPVGQLHASLLGLSQLLQPEGHHWETQQIPSLSPSQPWQRLLLRFKILRSLQAFVAVAARVFAHGAATLSPDKTHTCPPCPAPEDEGGPSVFLFPPKPKDTLMISRTPEVTCVVVDVSHEDPEVKFNWYVDGVEVHNAKTKPREEQYNSTYRVVSVLTVLHQDWLNGKEYKCKVSNKALPAPIEKTISKAKGQPREPQVYVYPPSREEMTKNQVSLTCLVKGFYPSDIAVEWESNGQPENNYKTTPPVLDEDGSFALVSKLTVDKSRWQQGNVFSCSVMHEALHNHYTQKSLSLSPGK
heavy 2: B1 heavy 2
light: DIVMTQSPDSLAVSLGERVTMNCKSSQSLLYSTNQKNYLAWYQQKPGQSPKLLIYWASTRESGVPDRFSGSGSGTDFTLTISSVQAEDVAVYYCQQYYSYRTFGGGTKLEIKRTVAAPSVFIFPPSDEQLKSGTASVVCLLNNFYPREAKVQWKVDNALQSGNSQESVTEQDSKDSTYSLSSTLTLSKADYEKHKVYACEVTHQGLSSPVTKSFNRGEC
- IFN-γ release, % of rIL-23, activated CD8+ T cells (IL-23 receptor complex): 2%

B3: Fab-IL-23(F60A)-Fc-CD4 Ab (other)
heavy 1: B2 heavy 1 with A290E, F291A
heavy 2: B1 heavy 2
light: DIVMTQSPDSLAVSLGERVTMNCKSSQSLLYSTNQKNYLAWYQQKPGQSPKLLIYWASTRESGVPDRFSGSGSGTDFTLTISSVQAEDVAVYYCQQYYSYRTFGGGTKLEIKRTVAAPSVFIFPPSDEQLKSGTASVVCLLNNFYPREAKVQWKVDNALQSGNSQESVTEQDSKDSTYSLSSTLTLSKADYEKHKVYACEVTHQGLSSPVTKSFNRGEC
- IFN-γ release, % of rIL-23, activated CD8+ T cells (IL-23 receptor complex): 1.5%

B4: Fab-IL-12(F60A)-Fc-CD4 Ab (other)
heavy 1: B1 heavy 1 with F291A
heavy 2: B1 heavy 2
light: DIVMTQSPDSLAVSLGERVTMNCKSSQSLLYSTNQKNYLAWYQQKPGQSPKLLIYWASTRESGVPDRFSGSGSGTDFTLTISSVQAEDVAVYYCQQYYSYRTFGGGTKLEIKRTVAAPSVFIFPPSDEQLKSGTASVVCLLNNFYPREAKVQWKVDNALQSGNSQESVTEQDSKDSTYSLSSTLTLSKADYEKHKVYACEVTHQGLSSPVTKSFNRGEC
- IFN-γ release, % of rIL-12, activated CD8+ T cells [1]: 1.5%
- binding result (CD8 on CD8+ T cells): no binding

B5: Fab-IL-12(E59A)-Fc-CD4 Ab (other)
heavy 1: B1 heavy 1 with E290A
heavy 2: B1 heavy 2
light: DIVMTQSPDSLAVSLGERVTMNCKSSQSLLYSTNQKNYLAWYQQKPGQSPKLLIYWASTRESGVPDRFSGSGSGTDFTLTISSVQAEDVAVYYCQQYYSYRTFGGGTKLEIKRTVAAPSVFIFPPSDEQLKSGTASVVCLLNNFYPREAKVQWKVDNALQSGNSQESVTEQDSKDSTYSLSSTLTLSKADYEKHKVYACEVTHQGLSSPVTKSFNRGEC
- IFN-γ release, % of rIL-12, activated CD8+ T cells [1]: 1.1%
- binding result (CD8 on CD8+ T cells): no binding

B6: Fab-IL-12(E59A/F60A)-Fc-CD4 Ab (other)
heavy 1: B1 heavy 1 with E290A, F291A
heavy 2: B1 heavy 2
light: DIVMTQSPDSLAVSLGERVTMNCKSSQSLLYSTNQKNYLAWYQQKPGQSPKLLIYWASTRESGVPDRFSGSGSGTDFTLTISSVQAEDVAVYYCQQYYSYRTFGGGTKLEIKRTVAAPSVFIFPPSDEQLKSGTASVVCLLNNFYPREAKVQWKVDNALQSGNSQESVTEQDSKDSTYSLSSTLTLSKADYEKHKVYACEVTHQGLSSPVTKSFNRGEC
- IFN-γ release, % of rIL-12, activated CD8+ T cells [1]: 0%
- binding result (CD8 on CD8+ T cells): no binding

B7: IL-2(L18R/Q22E/R38D/K43E/E61R)/PD-L1(mut2)-Fc/IL-12(E59A/F60A) (Fc fusion)
chain 1: FTVTVPKDLYVVEYGSNMTIECKFPVEKQLDLAALQVYWMMEDKNIIQFVHGEEDLKVQHSSYRQRARLLKDQLSLGNAALQITDVKLQDAGVYTCLIAYKGADYKRITVKVNAPYNKINQRILVVDPVTSEHELTCQAEGYPKAEVIWTSSDHQVLSGKTTTTNSKREEKLFNVTSTLRINTTTNEIFYCTFRRLDPEENHTAELVIPELPLAHPPNERGGGGSGGGDKTHTCPPCPAPEDEGGPSVFLFPPKPKDTLMISRTPEVTCVVVDVSHEDPEVKFNWYVDGVEVHNAKTKPREEQYNSTYRVVSVLTVLHQDWLNGKEYKCKVSNKALPAPIEKTISKAKGQPREPQVYVYPPSREEMTKNQVSLTCLVKGFYPSDIAVEWESNGQPENNYKTTPPVLDEDGSFALVSKLTVDKSRWQQGNVFSCSVMHEALHNHYTQKSLSLSPGKGGGGSGGGIWELKKDVYVVELDWYPDAPGEMVVLTCDTPEEDGITWTLDQSSEVLGSGKTLTIQVKAAGDAGQYTCHKGGEVLSHSLLLLHKKEDGIWSTDILKDQKEPKNKTFLRCEAKNYSGRFTCWWLTTISTDLTFSVKSSRGSSDPQGVTCGAATLSAERVRGDNKEYEYSVECQEDSACPAAEESLPIEVMVDAVHKLKYENYTSSFFIRDIIKPDPPKNLQLKPLKNSRQVEVSWEYPDTWSTPHSYFSLTFCVQVQGKSKREKKDRVFTDKTSATVICRKNASISVRAQDRYYSSSWSEWASVPCSGGGGSGGGSGGGGSRNLPVATPDPGMFPCLHHSQNLLRAVSNMLQKARQTLEFYPCTSEEIDHEDITKDKTSTVEACLPLELTKNESCLNSRETSFITNGSCLASRKTSFMMALCLSSIYEDLKMYQVEFKTMNAKLLMDPKRQIFLDQNMLAVIDELMQALNFNSETVPQKSSLEEPDFYKTKIKLCILLHAFRIRAVTIDRVMSYLNAS
chain 2: FTVTVPKDLYVVEYGSNMTIECKFPVEKQLDLAALQVYWMMEDKNIIQFVHGEEDLKVQHSSYRQRARLLKDQLSLGNAALQITDVKLQDAGVYTCLIAYKGADYKRITVKVNAPYNKINQRILVVDPVTSEHELTCQAEGYPKAEVIWTSSDHQVLSGKTTTTNSKREEKLFNVTSTLRINTTTNEIFYCTFRRLDPEENHTAELVIPELPLAHPPNERGGGSGAPTSSSTKKTQLQLEHLRLDLEMILNGINNYKNPKLTDMLTFEFYMPKKATELKHLQCLERELKPLEEVLNLAQSKNFHLRPRDLISNINVIVLELKGSETTFMCEYADETATIVEFLNRWITFCQSIISTLTGGGGSGGGDKTHTCPPCPAPEKKGGPSVFLFPPKPKDTLMISRTPEVTCVVVDVSHEDPEVKFNWYVDGVEVHNAKTKPREEQYNSTYRVVSVLTVLHQDWLNGKEYKCKVSNKALPAPIEKTISKAKGQPREPQVYVLPPSREEMTKNQVSLLCLVKGFYPSDIAVEWESNGQPENRYMTWPPVLDSDGSFFLYSKLTVDKSRWQQGNVFSCSVMHEALHNHYTQKSLSLSPGK
- IL-2 signal transduction, % of rIL-2, HEK-IL-2-PD-1 cells [2]: 32%
- IL-12 signal transduction, % of rIL-12, HEK-IL-12-PD-1 cells [2]: 27%
- IL-12 signal transduction, % of rIL-12, HEK-IL-12 cells [3]: 2%
- IL-2 signal transduction, % of rIL-2, HEK-IL-2 cells (human IL-2 receptor): 3%

B8: IL-2(R38D/K43E/E61R/Q126T)/PD-L1(mut2)-Fc/IL-12(E59A/F60A) (Fc fusion)
chain 1: B7 chain 1
chain 2: B7 chain 2 with R243L, E247Q, Q351T
- IL-2 signal transduction, % of rIL-2, HEK-IL-2-PD-1 cells [2]: 31%
- IL-12 signal transduction, % of rIL-12, HEK-IL-12-PD-1 cells [2]: 30%
- IL-12 signal transduction, % of rIL-12, HEK-IL-12 cells [3]: 1%
- IL-2 signal transduction, % of rIL-2, HEK-IL-2 cells (human IL-2 receptor): 3%
